Data: US20220298218A1 (ANTAG THERAPEUTICS, published 2022)
*1 amine or outer side, *2 acyl side, *3 side chain or, on linkers, in order; H or OH if unused. Where no end group is shown, it is not given here. Side-chain parts run from the residue outwards. The star is where a group is joined. C18 diacid = O=C(O)CCCCCCCCCCCCCCCCC(=O)*; C16 diacid = O=C(O)CCCCCCCCCCCCCCC(=O)*; γGlu = O=C(O)[C@H](CCC(=O)[*:2])N[*:1]; AEEA = NCCOCCOCC(=O)O

T1: human GIP receptor (human, UniProt P48546 22-466)
T1 sequence (looked up): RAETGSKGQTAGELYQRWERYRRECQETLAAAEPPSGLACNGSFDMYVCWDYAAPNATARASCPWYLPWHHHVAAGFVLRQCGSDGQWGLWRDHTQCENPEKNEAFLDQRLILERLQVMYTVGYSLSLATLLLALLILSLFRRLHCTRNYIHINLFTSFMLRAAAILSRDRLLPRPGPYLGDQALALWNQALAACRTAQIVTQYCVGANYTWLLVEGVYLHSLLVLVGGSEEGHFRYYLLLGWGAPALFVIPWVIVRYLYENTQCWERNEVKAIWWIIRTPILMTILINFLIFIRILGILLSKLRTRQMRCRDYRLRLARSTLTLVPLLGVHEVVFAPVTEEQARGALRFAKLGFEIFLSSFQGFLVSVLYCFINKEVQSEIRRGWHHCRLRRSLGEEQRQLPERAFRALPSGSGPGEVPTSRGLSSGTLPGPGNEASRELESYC


target: T1, human GIP receptor; assay: cell-based or functional assay

Binder	cAMP antagonism [nM]	cAMP antagonism % inhib [%]	cAMP antagonism log [log M]	cAMP agonism Emax
TFISDYKIAMDKIHQQDFVNWLLAQKGKKNDWKHNITQ (HELM PEPTIDE1{T.F.I.S.D.Y.K.I.A.M.D.K.I.H.Q.Q.D.F.V.N.W.L.L.A.Q.K.G.K.K.N.D.W.K.H.N.I.T.Q}|PEPTIDE2{[O=C(O)CCCCCCCCCCCCCCC(=O)[*:2]].[gGlu]}$PEPTIDE1,PEPTIDE2,7:R3-2:R2$$$V2.0; N-terminus assumed; SMILES CC[C@H](C)[C@H](NC(=O)[C@H](CCCCNC(=O)CC[C@H](NC(=O)CCCCCCCCCCCCCCC(=O)O)C(=O)O)NC(=O)[C@H](Cc1ccc(O)cc1)NC(=O)[C@H](CC(=O)O)NC(=O)[C@H](CO)NC(=O)[C@@H](NC(=O)[C@H](Cc1ccccc1)NC(=O)[C@@H](N)[C@@H](C)O)[C@@H](C)CC)C(=O)N[C@@H](C)C(=O)N[C@@H](CCSC)C(=O)N[C@@H](CC(=O)O)C(=O)N[C@@H](CCCCN)C(=O)N[C@H](C(=O)N[C@@H](Cc1c[nH]cn1)C(=O)N[C@@H](CCC(N)=O)C(=O)N[C@@H](CCC(N)=O)C(=O)N[C@@H](CC(=O)O)C(=O)N[C@@H](Cc1ccccc1)C(=O)N[C@H](C(=O)N[C@@H](CC(N)=O)C(=O)N[C@@H](Cc1c[nH]c2ccccc12)C(=O)N[C@@H](CC(C)C)C(=O)N[C@@H](CC(C)C)C(=O)N[C@@H](C)C(=O)N[C@@H](CCC(N)=O)C(=O)N[C@@H](CCCCN)C(=O)NCC(=O)N[C@@H](CCCCN)C(=O)N[C@@H](CCCCN)C(=O)N[C@@H](CC(N)=O)C(=O)N[C@@H](CC(=O)O)C(=O)N[C@@H](Cc1c[nH]c2ccccc12)C(=O)N[C@@H](CCCCN)C(=O)N[C@@H](Cc1c[nH]cn1)C(=O)N[C@@H](CC(N)=O)C(=O)N[C@H](C(=O)N[C@H](C(=O)N[C@@H](CCC(N)=O)C(=O)O)[C@@H](C)O)[C@@H](C)CC)C(C)C)[C@@H](C)CC) [AT368]	9	100	-8.1	–
SGTFISDYSIAMDKIK([AEEA-AEEA-AEEA-γGlu-C16 diacid])QQDFVNWLLAQKGKKNDW-OH (N-terminus assumed; SMILES CC[C@H](C)[C@H](NC(=O)[C@H](CO)NC(=O)[C@H](Cc1ccc(O)cc1)NC(=O)[C@H](CC(=O)O)NC(=O)[C@H](CO)NC(=O)[C@@H](NC(=O)[C@H](Cc1ccccc1)NC(=O)[C@@H](NC(=O)CNC(=O)[C@@H](N)CO)[C@@H](C)O)[C@@H](C)CC)C(=O)N[C@@H](C)C(=O)N[C@@H](CCSC)C(=O)N[C@@H](CC(=O)O)C(=O)N[C@@H](CCCCN)C(=O)N[C@H](C(=O)N[C@@H](CCCCNC(=O)COCCOCCNC(=O)COCCOCCNC(=O)COCCOCCNC(=O)CC[C@H](NC(=O)CCCCCCCCCCCCCCC(=O)O)C(=O)O)C(=O)N[C@@H](CCC(N)=O)C(=O)N[C@@H](CCC(N)=O)C(=O)N[C@@H](CC(=O)O)C(=O)N[C@@H](Cc1ccccc1)C(=O)N[C@H](C(=O)N[C@@H](CC(N)=O)C(=O)N[C@@H](Cc1c[nH]c2ccccc12)C(=O)N[C@@H](CC(C)C)C(=O)N[C@@H](CC(C)C)C(=O)N[C@@H](C)C(=O)N[C@@H](CCC(N)=O)C(=O)N[C@@H](CCCCN)C(=O)NCC(=O)N[C@@H](CCCCN)C(=O)N[C@@H](CCCCN)C(=O)N[C@@H](CC(N)=O)C(=O)N[C@@H](CC(=O)O)C(=O)N[C@@H](Cc1c[nH]c2ccccc12)C(=O)O)C(C)C)[C@@H](C)CC) [AT420]	237	100	-6.6	–
TFISDYKIAMDKIHQQDFVNWLLAQKGKKNDWKHN (HELM PEPTIDE1{T.F.I.S.D.Y.K.I.A.M.D.K.I.H.Q.Q.D.F.V.N.W.L.L.A.Q.K.G.K.K.N.D.W.K.H.N}|PEPTIDE2{[O=C(O)CCCCCCCCCCCCCCC(=O)[*:2]].[gGlu]}$PEPTIDE1,PEPTIDE2,7:R3-2:R2$$$V2.0; N-terminus assumed; SMILES CC[C@H](C)[C@H](NC(=O)[C@H](CCCCNC(=O)CC[C@H](NC(=O)CCCCCCCCCCCCCCC(=O)O)C(=O)O)NC(=O)[C@H](Cc1ccc(O)cc1)NC(=O)[C@H](CC(=O)O)NC(=O)[C@H](CO)NC(=O)[C@@H](NC(=O)[C@H](Cc1ccccc1)NC(=O)[C@@H](N)[C@@H](C)O)[C@@H](C)CC)C(=O)N[C@@H](C)C(=O)N[C@@H](CCSC)C(=O)N[C@@H](CC(=O)O)C(=O)N[C@@H](CCCCN)C(=O)N[C@H](C(=O)N[C@@H](Cc1c[nH]cn1)C(=O)N[C@@H](CCC(N)=O)C(=O)N[C@@H](CCC(N)=O)C(=O)N[C@@H](CC(=O)O)C(=O)N[C@@H](Cc1ccccc1)C(=O)N[C@H](C(=O)N[C@@H](CC(N)=O)C(=O)N[C@@H](Cc1c[nH]c2ccccc12)C(=O)N[C@@H](CC(C)C)C(=O)N[C@@H](CC(C)C)C(=O)N[C@@H](C)C(=O)N[C@@H](CCC(N)=O)C(=O)N[C@@H](CCCCN)C(=O)NCC(=O)N[C@@H](CCCCN)C(=O)N[C@@H](CCCCN)C(=O)N[C@@H](CC(N)=O)C(=O)N[C@@H](CC(=O)O)C(=O)N[C@@H](Cc1c[nH]c2ccccc12)C(=O)N[C@@H](CCCCN)C(=O)N[C@@H](Cc1c[nH]cn1)C(=O)N[C@@H](CC(N)=O)C(=O)O)C(C)C)[C@@H](C)CC) [AT367]	6	100	-8.3	–
EGTFISDYSIAMDKIK([AEEA-AEEA-AEEA-γGlu-C18 diacid])QQDFVNWLLAQKGKKNDW-OH (N-terminus assumed; SMILES CC[C@H](C)[C@H](NC(=O)[C@H](CO)NC(=O)[C@H](Cc1ccc(O)cc1)NC(=O)[C@H](CC(=O)O)NC(=O)[C@H](CO)NC(=O)[C@@H](NC(=O)[C@H](Cc1ccccc1)NC(=O)[C@@H](NC(=O)CNC(=O)[C@@H](N)CCC(=O)O)[C@@H](C)O)[C@@H](C)CC)C(=O)N[C@@H](C)C(=O)N[C@@H](CCSC)C(=O)N[C@@H](CC(=O)O)C(=O)N[C@@H](CCCCN)C(=O)N[C@H](C(=O)N[C@@H](CCCCNC(=O)COCCOCCNC(=O)COCCOCCNC(=O)COCCOCCNC(=O)CC[C@H](NC(=O)CCCCCCCCCCCCCCCCC(=O)O)C(=O)O)C(=O)N[C@@H](CCC(N)=O)C(=O)N[C@@H](CCC(N)=O)C(=O)N[C@@H](CC(=O)O)C(=O)N[C@@H](Cc1ccccc1)C(=O)N[C@H](C(=O)N[C@@H](CC(N)=O)C(=O)N[C@@H](Cc1c[nH]c2ccccc12)C(=O)N[C@@H](CC(C)C)C(=O)N[C@@H](CC(C)C)C(=O)N[C@@H](C)C(=O)N[C@@H](CCC(N)=O)C(=O)N[C@@H](CCCCN)C(=O)NCC(=O)N[C@@H](CCCCN)C(=O)N[C@@H](CCCCN)C(=O)N[C@@H](CC(N)=O)C(=O)N[C@@H](CC(=O)O)C(=O)N[C@@H](Cc1c[nH]c2ccccc12)C(=O)O)C(C)C)[C@@H](C)CC) [AT418]	68	95	-7.2	7.8
SGTFISDYSIAMDKIK([AEEA-AEEA-γGlu-C16 diacid])QQDFVNWLLAQKGKKNDW-OH (N-terminus assumed; SMILES CC[C@H](C)[C@H](NC(=O)[C@H](CO)NC(=O)[C@H](Cc1ccc(O)cc1)NC(=O)[C@H](CC(=O)O)NC(=O)[C@H](CO)NC(=O)[C@@H](NC(=O)[C@H](Cc1ccccc1)NC(=O)[C@@H](NC(=O)CNC(=O)[C@@H](N)CO)[C@@H](C)O)[C@@H](C)CC)C(=O)N[C@@H](C)C(=O)N[C@@H](CCSC)C(=O)N[C@@H](CC(=O)O)C(=O)N[C@@H](CCCCN)C(=O)N[C@H](C(=O)N[C@@H](CCCCNC(=O)COCCOCCNC(=O)COCCOCCNC(=O)CC[C@H](NC(=O)CCCCCCCCCCCCCCC(=O)O)C(=O)O)C(=O)N[C@@H](CCC(N)=O)C(=O)N[C@@H](CCC(N)=O)C(=O)N[C@@H](CC(=O)O)C(=O)N[C@@H](Cc1ccccc1)C(=O)N[C@H](C(=O)N[C@@H](CC(N)=O)C(=O)N[C@@H](Cc1c[nH]c2ccccc12)C(=O)N[C@@H](CC(C)C)C(=O)N[C@@H](CC(C)C)C(=O)N[C@@H](C)C(=O)N[C@@H](CCC(N)=O)C(=O)N[C@@H](CCCCN)C(=O)NCC(=O)N[C@@H](CCCCN)C(=O)N[C@@H](CCCCN)C(=O)N[C@@H](CC(N)=O)C(=O)N[C@@H](CC(=O)O)C(=O)N[C@@H](Cc1c[nH]c2ccccc12)C(=O)O)C(C)C)[C@@H](C)CC) [AT419]	215	78	-6.7	4.9
